Legend:
[1] = system: KG-1 cells; assay: Binding competition of Y1 forms on KG-1 cells; parameters: species or system human; conditions: Y1 IgG-Biotin 50 ng; Y1 scFvs 5 μg and 10 μg
From the text: To compare the binding of the scFv monomer (also referred to as CONY1) with the Y1 dimer, binding competition experiments were done in vitro on KG-1 cells. In addition, these experiments also compared the binding of the full Y1 IgG to the scFv Y1 monomers. To perform this study, a Y1 IgG was labeled with biotin.

[2] = target: T1, natural human platelet derived glycocalicin (Homo sapiens, UniProt P07359); assay: Western blot on natural human platelet derived glycocalicin; format: binding; conditions: semi-purified human platelet derived glycocalicin
T1 construct: glycocalicin (soluble, extracellular fragment of GPIbα); from tissue; host or cells: human platelets
Description: The DNA fragment encoding for glycocalicin (GC, amino acid 1 to amino acid 493 of GPIbα ) was cloned into an IPTG inducible prokaryotic vector cassette. E. coli (BL21 DE3) cells harboring the newly constructed plasmid were grown at 37° C. to O.D. 0.7-0.8, than at 37° C. for 3 hours for in the presence of IPTG for induction.
SDS-polyacrylamide gel loaded either with semi-purified human platelet derived glycocalicin (“GC”) or with E. coli cell lysates (“total”) derived from induced and non-induced cells were analyzed. Western blot analysis was performed with biotinylated Y1-scfv, polyclonal rabbit anti-human glycocalicin antibody, commercially available mouse anti-human CD42 monoclonal antibody (SZ2 Immunotech, PM640 Serotec, HIP1 Pharmigen, AN51 DAKO), and polyclonal antibody against the N-terminus of GPIbα (Sc-7071, Santa Cruz).
The DNA fragment encoding the N-terminal soluble part of human platelet GP1b-glycocalicin (GC, amino acid 1 to amino acid 493) was cloned into an IPTG inducible prokaryotic vector cassette. E. coli (BL21 DE3) cells harboring the newly constructed plasmid were grown at 37° C. to O.D. 0.7-0.8, than at 37° C. for 3 hours for in the presence of IPTG for induction. SDS-polyacrylamide gel loaded either with semi-purified human platelet derived GC or with E. coli cell lysates (total protein content) derived from induced and non-induced cells were analyzed. […]

[3] = Western blot with Y1 on aryl-sulfatase-treated heparin-BSA; format: binding; conditions: 18 hr at 22° C.
From the text: (§1) Y1 ligand was further characterized using enzymatic treatments with proteases, glycanases, and […]; Western blotting with Y1, anti-CD42 antibodies, anti-CD162 antibodies and 181, immunoprecipitation using Y1 and anti-CD162 antibodies; FACS analysis using Y1 anti-CD162 antibodies; and sequencing.
(§2) The table below summarizes the biochemical experiments preformed to characterize and localize the Y1 binding site on KG-1 cells.
(§3) Western Blot Analysis with Y1 on SDS-PAGE Reducing Gels
(§4) The nitrocellulose membrane was blocked using 5% skim milk for one hour at room temperature. The membrane was then washed 3 times for 5 minutes each with 0.05% Tween 20 in PBS at room temperature. The membrane was incubated with 5 μg/ml Y1-biotin (or 181-biotin) in 2% skim milk in PBS for one hour at room temperature. The membrane was then washed 3 times for 5 minutes each with cold 0.05% Tween 20 in PBS in the cold room (about 4 to about 10° C.). The membrane was then incubated in the cold room with a 1:1000 dilution of SAV-HRP (streptavidin-HRP) (at a final concentration of […]) in 2% skim milk, 0.05% Tween. The dilution was carried out at room temperature (about 25° C.), then the diluted SAV-HRP was cooled on ice for 10-15 minutes before use. The incubation was carried out for 1 hour with gentle shaking. After the incubation with SAV-HRP, the membrane was washed, as above. […]

[4] = system: platelet-rich-plasma (PRP); assay: Ristocetin-induced aggregation of platelet-rich plasma after preincubation with scFv; format: cell-based, human; conditions: scFv 25 μg/ml
Description: The effect of Y1 (scfv) on aggregation of platelet-rich-plasma (PRP) was tested at various concentrations of Y1. PRP was pre-incubated with Y1 scfv, Y17 scfv, or a control sTM-1cFv for 4 min at 37° C. before being exposed to ristocetin, an inducer of platelet agglutination and aggregation. A reversible inhibitory effect was observed when scFv was added to PRP prior to the addition of ristocetin, and it was dose dependent.
Blood was collected into a tube containing 3.8% sodium citrate. Platelet-rich plasma was prepared by centrifugation at 250×g for 10 minutes.
For platelet aggregation studies, platelet rich plasma (PRP) and washed platelets were stirred at 500 rpm at 37° C. in whole blood Lumiaggregometer (Chronolog, Havertown,Pa.). The difference in light transmission through the platelet suspension and suspending medium was taken as 100% aggregation. The effect of Y1 on platelet aggregation was evaluated by addition of different concentration of Y1 before the addition of agonist, and the effect was recorded for four minutes.

[5] = system: RP-HPLC KG-1 membrane fraction; assay: Western blot with Y1 on enzyme-treated KG-1 membrane fraction; format: binding, human
From the text: as §1, §2, §3
The nitrocellulose membrane was blocked using 5% skim milk for one hour at room temperature. The membrane was then washed 3 times for 5 minutes each with 0.05% Tween 20 in PBS at room temperature. The membrane was incubated with 5 μg/ml Y1-biotin (or 181-biotin) in 2% skim milk in PBS for one hour at room temperature. The membrane was then washed 3 times for 5 minutes each with cold 0.05% Tween 20 in PBS in the cold room (about 4 to about 10° C.). The membrane was then incubated in the cold room with a 1:1000 dilution of SAV-HRP (streptavidin-HRP) (at a final concentration of […]) in 2% skim milk, 0.05% Tween. The dilution was carried out at room temperature (about 25° C.), then the diluted SAV-HRP was cooled on ice for 10-15 minutes before use. The incubation was carried out for 1 hour with gentle shaking. After the incubation with SAV-HRP, the membrane was washed, as above. The membrane was then incubated with Super Signal mixture (Pierce) for 5 minutes as directed in the commercial protocol, then excess solution was dried. The membrane was use to expose it to X-ray film (Fuji), and the film was developed.

[6] = system: primary leukemia cells; assay: FACS binding of Y1 to primary leukemia cells of patients; parameters: species or system human
Description: Samples provided from hospitals. Patients sample 30 μl/tube. Add 5 μl/tube of CD33-APC (for AML) or CD19-APC (for B-CLL) or CD38-APC (for Multiple Myeloma). Add 5 μl/tube of CD45-PerCp and 5 μl of scFv-Y1 or control scFv-N31 or CD162-PE (KPL1). Incubate tubes 30 minutes at 4° C. with low shaking. Wash by adding 2 ml PBS and spin 5 minutes at 1200 rpm. Discard supernatant.
For a one step assay continue with the lysis step:
Add 500 μl BD Lysine solution diluted 1:10 with ddH2O (300 μl to patient sample). Vortex at high speed and incubate 12 minutes at 4° C. Wash as above. Discard supernatant. And add 500 μl PBS. The samples are read in the FACS using blood sample acquisition setup according to international standards.
For two or more assays: working buffer is PBS+1% BSA+0.05% sodium azide. Incubations and wash as above.
Lysis of the red blood cells is the final step in the assay, followed by resuspension with 500 μl PBS.

[7] = system: Glycocalicin (GC); assay: Western blot with Y1 on enzyme-treated glycocalicin; format: binding, human; conditions: O-Sialo glycoprotein endopeptidase, 30′ at 37° C.
From the text: as §1, §2, §3, §4

B1: Y1 scFv: fully human scFv clone binding platelets and myelogenous leukemia cells, SEQ ID NO: 25 (protein, listed as Homo sapiens)
scFv: MKYLLPTAAAGLLLLAAQPAMAEVQLVESGGGVVRPGGSLRLSCAASGFTFDDYGMSWVRQAPGKGLEWVSGINWNGGSTGYADSVKGRFTISRDNAKNSLYLQMNSLRAEDTAVYYCARMRAPVIWGQGTLVTVSRGGGGSGGGGSGGGGSSELTQDPAVSVALGQTVRITCQGDSLRSYYASWYQQKPGQAPVLVIYGKNNRPSGIPDRFSGSSSGNTASLTITGAQAEDEADYYCNSRDSSGNHVVFGGGTKLTVLGAAAEQKLISEEDLNGAA
[1]
  competition with Y1 IgG-Biotin: partially competed
[2]
  recognition in Western blot: recognized
[2]; listed as scFv Y1
  recognition in Western blot: recognized only the natural human derived GC
[3]
  Reactivity with Y1: Binds to
[4]
  % aggregation: 87%
[4]; listed as Y1
  % inhibition: no significant inhibition
[5]; Mocarhagin, 7′ at 37° C.
  Reactivity with Y1: No
[5]; O-Sialo glycoprotein endopeptidase, 30′ at 37° C., SDS-PAGE reducing gel
  Reactivity with Y1: Reactivity
[5]; O-Sialo glycoprotein endopeptidase, 4 hr at 37° C.
  Reactivity with Y1: No
[5]; aryl-sulfatase, 18 hr at 22° C.
  Reactivity with Y1: No
[6]; patients with AML
  % Positive: 80%
  Number Positive: 60/75
[6]; patients with B-Leukemia
  % Positive: 67%
  Number Positive: 29/43
[6]; patients with Multiple Myeloma
  % Positive: 100%
  Number Positive: 16/16
[7]
  Reactivity with Y1: Enhanced
